Assay results published in the supplement of paper PMC10126150.
± gives the standard deviation of the averaged measurements.

System: ATP
Test: switch fluorescence ratio, 500 uM ATP over buffer (Cy3 cluster intensity, sum of 5 cycles each) (fold (ratio)); higher = stronger signal-on switching upon ATP binding; sequences stand for … in TCGTCGGCAGCGTCAGATGTGTATAAGAGACAGTTTTTTTTTTTTTTTTTTTTTTTTT…TC
Settings: aptamer strand: ATP DNA aptamer (quencher-CACCTGGGGGAGTATTGCGGAGGAAGG + anchor), 100 nM annealed; ATP concentration: 500 uM
Summary of the method: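 After annealing to 100 nM quencher-labelled ATP aptamer, Cy3-labelled switching-strand clusters on a modified Illumina MiSeq flow-cell were imaged in selection buffer. A second image followed after 15 min with 500 uM ATP at 22 °C, and five such buffer/ATP cycles were done, each separated by NaOH stripping and re-annealing. The fluorescence ratio, averaged per switch-domain sequence, is summed target-cycle over summed buffer-cycle Cy3 intensity per cluster, with clusters outside 100-1000 RFU excluded.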
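Also: ATP exposure 15 min at 22 °C before imaging.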

| Sequence | switch fluorescence ratio |
| --- | --- |
| TAAGACTGAT | 1.016 ± 0.0019 |
| TAAGAGCCGT | 1.02 ± 0.012 |
| TAAGAGGCCA | 1.02 ± 0.017 |
| TAAGAGGGCA | 1.01 ± 0.014 |
| TAAGAGGGGG | 0.996 ± 0.052 |
| TAAGAGGGTA | 0.974 ± 0.06 |
| TAAGATGGCT | 1.11 ± 0.092 |
| TAAGATTTGT | 0.99 ± 0.02 |
| TAAGATTTTA | 1 ± 0.042 |
| TAAGCAGCGA | 1.045 ± 0.0036 |
| TAAGCCGCGT | 1.008 ± 0.0083 |
| TAAGCGGGTA | 1.02 ± 0.016 |
| TAAGCGGGTC | 1 ± 0.018 |
| TAAGCTAAGG | 1.04 ± 0.016 |
| TAAGCTGCCA | 1.02 ± 0.015 |
| TAAGCTGTCA | 0.965 ± 0.064 |
| TAAGCTTCAT | 1.04 ± 0.18 |
| TAAGGAAAGA | 1.08 ± 0.12 |
| TAAGGAAAGT | 0.991 ± 0.027 |
| TAAGGAAGGA | 0.9919 ± 0.0054 |
| TAAGGAAGGG | 1.004 ± 0.0075 |
| TAAGGAATGA | 0.993 ± 0.019 |
| TAAGGAGAGG | 1.01 ± 0.027 |
| TAAGGAGGGG | 0.981 ± 0.024 |
| TAAGGATGTT | 0.974 ± 0.026 |
| TAAGGCCACG | 0.9975 ± 0.0099 |

| Sequence | switch fluorescence ratio |
| --- | --- |
| TAAGGCCCGG | 1 ± 0.03 |
| TAAGGCCGGG | 0.9809 ± 0.0045 |
| TAAGGCGGGC | 0.988 ± 0.032 |
| TAAGGCTCGG | 0.994 ± 0.02 |
| TAAGGCTGGG | 0.962 ± 0.034 |
| TAAGGGAAAC | 0.963 ± 0.013 |
| TAAGGGAATG | 0.985 ± 0.061 |
| TAAGGGACAC | 1.05 ± 0.017 |
| TAAGGGACGT | 1.01 ± 0.034 |
| TAAGGGATAG | 0.985 ± 0.043 |
| TAAGGGCGTT | 0.994 ± 0.022 |
| TAAGGGGAAG | 1.04 ± 0.015 |
| TAAGGGGATT | 1.03 ± 0.047 |
| TAAGGGGGAG | 0.999 ± 0.01 |
| TAAGGGGGTC | 0.981 ± 0.012 |
| TAAGGGTCAG | 0.9953 ± 0.0012 |
| TAAGGGTCCC | 0.965 ± 0.016 |
| TAAGGGTGA | 1.03 ± 0.015 |
| TAAGGGTTAT | 0.978 ± 0.023 |
| TAAGGGTTTA | 1.06 ± 0.1 |
| TAAGGTACAT | 1.09 ± 0.012 |
| TAAGGTAGGG | 1.01 ± 0.013 |
| TAAGGTGTTG | 1.04 ± 0.024 |
| TAAGGTTCAC | 1.003 ± 0.0083 |
| TAAGGTTTGG | 0.9862 ± 0.0092 |
| TAAGTACCGG | 1.06 ± 0.038 |

| Sequence | switch fluorescence ratio |
| --- | --- |
| TAAGTACGGC | 1.31 ± 0.02 |
| TAAGTAGTTT | 1.02 ± 0.013 |
| TAAGTATAGT | 1.0211 ± 0.00015 |
| TAAGTCGGTC | 0.9827 ± 0.0011 |
| TAAGTCGTGG | 0.9735 ± 0.0019 |
| TAAGTGCGGA | 0.982 ± 0.011 |
| TAAGTGGGGG | 0.979 ± 0.03 |
| TAAGTGTTAG | 1.013 ± 0.0074 |
| TAAGTTACAA | 1.09 ± 0.019 |
| TAAGTTAGTA | 0.9786 ± 0.0091 |
| TAAGTTCTAA | 0.979 ± 0.018 |
| TAAGTTGGCT | 0.958 ± 0.023 |
| TAAGTTTCCT | 1.07 ± 0.03 |
| TAAGTTTGCA | 1.003 ± 0.0077 |
| TAAGTTTTAT | 0.984 ± 0.021 |
| TAAGTTTTGC | 0.979 ± 0.038 |
| TAAGTTTTTT | 0.99 ± 0.02 |
| TAATAAAATG | 0.99 ± 0.015 |
| TAATAATCAA | 1.02 ± 0.051 |
| TAATACGTTG | 1.03 ± 0.012 |
| TAATAGAAAA | 1.011 ± 0.006 |
| TAATAGACGG | 1 ± 0.026 |
| TAATAGTAAT | 1.02 ± 0.011 |
| TAATAGTTTG | 1.028 ± 0.0095 |
| TAATATCATT | 1 ± 0.019 |
| TAATATGATT | 0.999 ± 0.029 |

| Sequence | switch fluorescence ratio |
| --- | --- |
| TAATATTCAA | 1.03 ± 0.014 |
| TAATATTCGA | 0.995 ± 0.018 |
| TAATATTGTT | 1.007 ± 0.0095 |
| TAATCAAAGT | 1.02 ± 0.018 |
| TAATCACCTA | 1.038 ± 0.0093 |
| TAATCCAGAA | 1.01 ± 0.082 |
| TAATCCATCG | 1.03 ± 0.049 |
| TAATCGGCTC | 1 ± 0.03 |
| TAATCGGCTG | 0.991 ± 0.069 |
| TAATCGGTG | 0.9805 ± 0.0024 |
| TAATCGTGGG | 1.02 ± 0.011 |
| TAATCTAATA | 0.987 ± 0.046 |
| TAATCTCCGG | 1.04 ± 0.04 |
| TAATCTTGGG | 1 ± 0.011 |
| TAATGAATAG | 1.01 ± 0.042 |
| TAATGAATTC | 1.003 ± 0.0081 |
| TAATGAGAAC | 0.974 ± 0.014 |
| TAATGAGGTC | 0.99 ± 0.046 |
| TAATGAGTTT | 1.006 ± 0.0016 |
| TAATGATTGT | 0.982 ± 0.042 |
| TAATGCGATG | 0.9852 ± 0.005 |
| TAATGGATGT | 0.976 ± 0.027 |
| TAATGGGGGC | 0.994 ± 0.018 |
| TAATGGGGTT | 1 ± 0.024 |
| TAATGGGTTA | 1 ± 0.037 |
| TAATGGTGT | 1.02 ± 0.041 |

| Sequence | switch fluorescence ratio |
| --- | --- |
| TAATGTGCAA | 1.09 ± 0.013 |
| TAATGTGGGT | 0.967 ± 0.015 |
| TAATGTTTAT | 0.996 ± 0.026 |
| TAATTAGGGT | 1 ± 0.025 |
| TAATTATCTT | 0.979 ± 0.058 |
| TAATTATTCT | 1.02 ± 0.014 |
| TAATTCACCA | 1.18 ± 0.18 |
| TAATTCGACT | 1.02 ± 0.029 |
| TAATTCGGTT | 1 ± 0.021 |
| TAATTGAGAA | 0.986 ± 0.037 |
| TAATTGGAGT | 0.972 ± 0.014 |
| TAATTGGGTC | 1.024 ± 0.0024 |
| TAATTGTAAG | 0.979 ± 0.017 |
| TAATTGTCTA | 1 ± 0.043 |
| TAATTTACCT | 1.275 ± 0.0075 |
| TAATTTGAGG | 0.955 ± 0.012 |
| TAATTTGTCA | 1.008 ± 0.0076 |
| TAATTTTAGC | 0.9913 ± 0.0086 |
| TAATTTTGGC | 0.99 ± 0.018 |
| TACAAAAAGG | 0.981 ± 0.023 |
| TACAAGCGTA | 0.992 ± 0.014 |
| TACAAGGACG | 1.03 ± 0.098 |
| TACAAGGGCA | 1.01 ± 0.037 |
| TACAAGTCAA | 1.02 ± 0.017 |
| TACAAGTTTG | 0.9965 ± 0.0053 |
| TACAATTGAA | 1 ± 0.025 |

| Sequence | switch fluorescence ratio |
| --- | --- |
| TACAATTTTT | 1.01 ± 0.028 |
| TACACAGCGG | 1.05 ± 0.045 |
| TACACGCGGG | 1.01 ± 0.048 |
| TACACTTTGC | 1.027 ± 0.0079 |
| TACAGAGGCA | 1.02 ± 0.031 |
| TACAGGCGCT | 0.994 ± 0.015 |
| TACAGGGACC | 1.022 ± 0.0034 |
| TACAGGGCTC | 1.05 ± 0.024 |
| TACAGGGGCC | 1 ± 0.022 |
| TACAGGTTGT | 1.21 ± 0.19 |
| TACAGTAGCT | 1.09 ± 0.011 |
| TACAGTTTCG | 1.03 ± 0.05 |
| TACATAAAAC | 1.011 ± 0.0025 |
| TACATATTCG | 0.989 ± 0.041 |
| TACCAAACGG | 2.23 ± 1.4 |
| TACCACTTAA | 1.03 ± 0.035 |
| TACCACTTTG | 1.24 ± 0.29 |
| TACCCCAATT | 1.068 ± 0.0037 |
| TACCGACATA | 1.189 ± 0.0084 |
| TACCGCGGGG | 1.04 ± 0.043 |
| TACCGGGCTT | 0.978 ± 0.02 |
| TACCGGGGTC | 1 ± 0.042 |
| TACCGGGTCT | 1.032 ± 0.005 |
